± gives the standard error. For some of these results: Variants at the floor of the assay were thinned out.
B1: glmS ribozyme (parent)
chain: AUAAAAGCGCCAGAACUACAGAAAUGUAGUUGACGAGGAGGAGGUUUAUCGAAUUUUCGGCGGAUGCCUCCAAA

Tests used:
Details in all cases: with glucosamine-6-phosphate
glucosamine-6-phosphate [1] = variants of: B1; assay: kcat; higher = faster cleavage; RNA array
Method in brief: (§1)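 kobs was derived by fitting per-tile medians to one- or two-exponential decays after normalising signals to baseline and to non-cleaving reference variants. Those signals came from barcoded ribozyme variants transcribed in situ by E. coli RNA polymerase on sequenced MiSeq chips, followed through a hybridised Cy3 probe at 37 °C and imaged over ~14 h. Glucosamine-6-phosphate (40 μM to 10 mM) in HEPES/KCl/Mg(OAc)2 buffer was flowed in. Weighted Michaelis–Menten fits across concentrations then gave kcat and KM.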

glucosamine-6-phosphate [2] = variants of: B1; assay: KM; higher = weaker cofactor use; RNA array
Method in brief: as §1

glucosamine-6-phosphate [3] = variants of: B1; assay: self-cleavage kobs at 2500 uM GlcN6P; higher = faster cleavage; RNA array
Method in brief: as §1

glucosamine-6-phosphate [4] = variants of: B1; assay: self-cleavage kobs at 10000 uM GlcN6P; higher = faster cleavage; RNA array
Method in brief: as §1

glucosamine-6-phosphate [5] = variants of: B1; assay: self-cleavage kobs at 640 uM GlcN6P; higher = faster cleavage; RNA array
Method in brief: as §1

glucosamine-6-phosphate [6] = variants of: B1; assay: self-cleavage kobs at 40 uM GlcN6P; higher = faster cleavage; RNA array
Method in brief: as §1

glucosamine-6-phosphate [7] = variants of: B1; assay: self-cleavage kobs at 160 uM GlcN6P; higher = faster cleavage; RNA array
Method in brief: as §1

Variant | kcat (glucosamine-6-phosphate [1]) [s⁻¹] | KM (glucosamine-6-phosphate [2]) [µM] | self-cleavage kobs at 2500 uM GlcN6P (glucosamine-6-phosphate [3]) [s⁻¹] | self-cleavage kobs at 10000 uM GlcN6P (glucosamine-6-phosphate [4]) [s⁻¹] | self-cleavage kobs at 640 uM GlcN6P (glucosamine-6-phosphate [5]) [s⁻¹] | self-cleavage kobs at 40 uM GlcN6P (glucosamine-6-phosphate [6]) [s⁻¹] | self-cleavage kobs at 160 uM GlcN6P (glucosamine-6-phosphate [7]) [s⁻¹]
AUAAAAACGCCAGGACUACAGAAAUGUAGUUGACGAGGAGGAGGUUUAUCGAAUUUUCGGCGGAUGCCUCCAAA [G7A A14G] | 9.79e-05 ± 3.9e-06 | 3550 ± 470 | 3.92e-05 ± 1.5e-05 | 7.23e-05 ± 6.8e-06 |  |  | 
AUAAAUGCGCCAGAACUACAGAAAUGUAGUUGACGAGGAGGAGGUUGAUCGAAUUUUCGGCGGAUGCCUCCAAA [A6U U47G] | 5.58e-05 ± 2.6e-06 | 564 ± 180 | 4.79e-05 ± 7.2e-06 | 5.16e-05 ± 6.8e-06 |  |  | 
AUAAAUGCGCCAGAACUACAGAAAUGUAGUUGACGAGGAGGAGGUUAAUCGAAUUUUCGGCGGAUGCCUCCAAA [A6U U47A] | 0.000155 ± 3.1e-06 | 1890 ± 110 | 8.84e-05 ± 1.2e-05 | 0.000131 ± 1.3e-05 | 3.88e-05 ± 9.8e-06 |  | 
AUAAAUGCGCCAGAACUACAGAAAUGUAGUUGACGAGGAGGAGGUUUAUCGAAUUUGCGGCGGAUGGCUCCAAA [A6U U57G C67G] | 2.88e-05 ± 7.6e-06 |  |  |  |  |  | 
AUAAAAACGCCAGAACUACAGAAAUGUAGUUGACGAGGAGGAGGUUUAUCGAAUUUUCGGCGGAUGCUUCCAAA [G7A C68U] | 2.24e-05 ± 5.5e-06 |  |  |  |  |  | 
AUAAAUGCGCCAGAACUACAGAAAUGUAGUUGACGAGGAAGAGGUUUAUCGAAUUUUCGGCGGAUGCCUCCAAA [A6U G40A] | 5.46e-05 ± 2e-06 | 1650 ± 280 | 3.37e-05 ± 1e-05 | 4.67e-05 ± 7e-06 |  |  | 
AUAAAAACGCCAGAACUACAGAAAUGUAGUUGACGAGGAGGAGGUUUAUAGAAUUUUCGGCGGAUGCCUCCAAA [G7A C50A] | < 1e-05 |  | < 1e-05 |  |  | < 1e-05 | < 1e-05
AUAAAAACGCCAGAACUACAGAAAUGUAGUUGACGAGGUGGAGGUUUAUCGAAUUUUCGGCGGAUGCCUCCAAA [G7A A39U] | 1.87e-05 ± 1.7e-06 | 2780 ± 970 |  |  |  |  | 
AUAAAUGCGCCAGAACUACAGAAAUGUAGUUGACGAGGAGAAGGUUUAUCGAAUUUUCGGCGGAUGCCUCCAAA [A6U G41A] | 1.73e-05 ± 2.5e-06 |  |  |  | < 1e-05 | < 1e-05 | < 1e-05
AUAAAUGCGCCAGAACUACAGAAAUGUAGUUGACGAGGAGGAGGUUUAUCGAAUAUUCGGCGGAUGCCUCCAAA [A6U U55A] | 0.000365 ± 1.1e-05 | 2630 ± 160 | 0.000173 ± 3.5e-05 | 0.000291 ± 3.4e-05 | 7.22e-05 ± 1.3e-05 |  | 
AUAAAUGCGCCAGAACUACAGAAAUGUAGUUGACGAGCAGGAGGUUUAUCGAAUUUUCGGCGGAUGCCUCCAAA [A6U G38C] | < 1e-05 | 3580 ± 1000 |  |  | < 1e-05 | < 1e-05 | < 1e-05
AUAAAUGCGCCAGAACUACAGAAAUGUAGUUGACGAGGAGGAGGUUUAUCAAAUUUUCGGCGGAUGCCUCAAAA [A6U G51A C71A] | 5.19e-05 ± 1.7e-05 |  |  |  |  |  | 
AUAAAUGCGCCAGAACUACAGAAAUGUAUUUGACGAGGAGGAGGUUUAUCGAAUUUUCGGCGGAUGCCUCCAAA [A6U G29U] | 5.83e-05 ± 3.7e-06 | 5560 ± 690 |  | 3.74e-05 ± 1.7e-05 |  | < 1e-05 | 
AUAAAUGCGCCAGAACUACAGAAAUGUAGUUGACGAUGAGGAGGUUUAUCGAAUUUUCGGCGGAUGCCUCCAAA [A6U G37U] | < 1e-05 |  | < 1e-05 |  |  |  | < 1e-05
AUAAAUGCGCCAGAACUACAGAAAUGUAGUUGACGAGGAGGAGGUUUAUCGAAUUUUCGGCGGAUGCUUCCAAA [A6U C68U] | 8.73e-05 ± 5.1e-06 | 491 ± 140 | 8.07e-05 ± 9e-06 | 8e-05 ± 7.3e-06 | 4.75e-05 ± 8.3e-06 |  | 
AUAAAUGCGCCAGAACUACAGAAAUGUAGUUGACGAGGAGGAGGUUUAUCGAAUUUUCGGCGGAUGCGUCCAAA [A6U C68G] | 1.22e-05 ± 3e-06 |  |  |  |  |  | 
AUAAAUGCGCCAGAACUACAGAAAUGUAGUUGACGAGGAGGAGGAUUAUCGAAUUUUCGGCGGAUGCCUCCAAA [A6U U45A] | 0.000657 ± 1.8e-05 | 2490 ± 130 | 0.000337 ± 6.4e-05 | 0.000523 ± 7.7e-05 | 0.000134 ± 2e-05 |  | 
AUAAAAACGCCAGAGCUACAGAAAUGUAGUUGACGAGGAGGAGGUUUAUCGAAGUUUCGGCGGAUGCCUCCAAA [G7A A15G U54G] | 3.72e-05 ± 1.5e-05 |  |  |  |  | < 1e-05 | < 1e-05
AUAAAUGCGCCAGAACUACAGAAAUGUAGUUGACGAGGAGGAGGUGUAUCGAAUUUUCGGCGGAUGCCUCCAAA [A6U U46G] | 0.000103 ± 5.5e-06 | 7260 ± 730 | 2.66e-05 ± 1.1e-05 | 5.95e-05 ± 1.5e-05 |  |  | 
AUAAAUGCGCCAGAACUACAGAAAUGUAGUUGACGAGGAGGAGGUAUAUCGAAUUUUCGGCGGAUGCCUCCAAA [A6U U46A] | 0.000115 ± 1.6e-05 |  |  |  |  |  | 
AUAAAUGCGCCAGAACUACAGAAAUGUAGUUGACGAGGAGGAGGUUUAUCGAAUUUUCGGCGGAUGGCUCCAAA [A6U C67G] | 1.15e-05 ± 1.2e-06 |  |  |  |  |  | 
AUAAAUGCGCCAGAACUACAGAAAUGUAGUUGACGAGGAGGAGGUUUAUCGAAUUUUCGGCGGAUGUCUCCAAA [A6U C67U] | 8.67e-05 ± 4.7e-06 | 565 ± 160 | 8.14e-05 ± 1.1e-05 | 8.01e-05 ± 6.2e-06 | 4.42e-05 ± 8.6e-06 |  | 
AUAAAAACGCCAGAACUACAGAAAUGUAGUUGACGAGGAGGAGGUUUAUCGAAUUUUCGGCUGAUGCCUCCAAA [G7A G62U] | < 1e-05 |  |  | < 1e-05 | < 1e-05 | < 1e-05 | 

From the supplement of paper PMC7125110
